Assay results: PMC8774053, “Genome-wide association of the metabolic shifts underpinning dark-induced senescence in Arabidopsis” (The Plant Cell, 2021)

Substrate: N[C@@H](Cc1ccc(O)cc1)C(=O)O
Assay: purified protein
Type: biochemical, Arabidopsis thaliana
Conditions: 0-8 mM tyrosine, 100 mM alpha-ketoglutarate, 0.2 mM PLP, 100 mM Tris-HCl pH 8.5, 30 C, 5 min, constant not given in text, figure only

B1: TAT1^A (accession CAM-61) (Arabidopsis thaliana) (protein)
chain: MENGATTTSTITIKGILSLLMESITTEEDEGGKRVISLGMGDPTLYSCFRTTQVSLQAVSDSLLSNKFHGYSPTVGLPQARRAIAEYLSRDLPYKLSQDDVFITSGCTQAIDVALSMLARPRANILLPRPGFPIYELCAKFRHLEVRYVDLLPENGWEIDLDAVEALADENTVALVVINPGNPCGNVYSYQHLMKIAESAKKLGFLVIADEVYGHLAFGSKPFVPMGVFGSIVPVLTLGSLSKRWIVPGWRLGWFVTTDPSGSFKDPKIIERFKKYFDILGGPATFIQAAVPTILEQTDESFFKKTLNSLKNSSDICCDWIKEIPCIDSSHRPEGSMAMMVKLNLSLLEDVSDDIDFCFKLAREESVILLPGTAVGLKNWLRITFAADATSIEEAFKRIKCFYLRHAKTQYPTI
- Km: 410 ± 30 µM
- kcat: 45.85 ± 0.88 s⁻¹

B2: TAT1 (Col-0, At5g53970.1; positive control) (Arabidopsis thaliana) (protein)
chain: MENGATTTSTITIKGILSLLMESITTEEDEGGKRVISLGMGDPTLYSCFRTTQVSLQAVSDSLLSNKFHGYSPTVGLPQARRAIAEYLSRDLPYKLSQDDVFITSGCTQAIDVALSMLARPRANILLPRPGFPIYELCAKFRHLEVRYVDLLPENGWEIDLDAVEALADENTVALVVINPGNPCGNVYSYQHLMKIAESAKKLGFLVIADEVYGHLAFGSKPFVPMGVFGSIVPVLTLGSLSKRWIVPGWRLGWFVTTDPSGSFKDPKIIERFKKYFDILGGPATFIQAAVPTILEQTDESFFKKTLNSLKNSSDICCDWIKEIPCIDSSHRPEGSMAMMVKLNLSLLEDVSDDIDFCFKLAREESVILLPGTAVGLKNWLRITFAADATSIEEAFKRIKCFYLRHAKTQYPTI
- Km: 390 ± 60 µM
- kcat: 47.84 ± 1.72 s⁻¹
